Results as given in US20240252637A1.

Biological target: CD19 on Namalwa cells (UniProt P15391)
Assay: cell-based or functional assay

Sequence of UniProt P15391 (P15391 20-556 limits assumed): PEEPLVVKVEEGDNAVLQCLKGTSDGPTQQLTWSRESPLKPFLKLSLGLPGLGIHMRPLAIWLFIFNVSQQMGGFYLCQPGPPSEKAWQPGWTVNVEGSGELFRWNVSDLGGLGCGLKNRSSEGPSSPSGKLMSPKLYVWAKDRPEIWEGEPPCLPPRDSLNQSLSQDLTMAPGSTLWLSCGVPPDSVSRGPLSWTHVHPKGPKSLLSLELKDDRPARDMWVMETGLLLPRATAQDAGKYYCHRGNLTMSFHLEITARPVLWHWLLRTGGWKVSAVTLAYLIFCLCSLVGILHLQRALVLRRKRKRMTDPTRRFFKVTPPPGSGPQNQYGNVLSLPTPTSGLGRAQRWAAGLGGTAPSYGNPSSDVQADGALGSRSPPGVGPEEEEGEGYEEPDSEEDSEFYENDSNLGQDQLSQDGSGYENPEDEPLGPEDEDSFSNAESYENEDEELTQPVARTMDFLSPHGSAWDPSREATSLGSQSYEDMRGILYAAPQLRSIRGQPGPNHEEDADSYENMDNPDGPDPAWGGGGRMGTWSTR

Which results are given for “CD19-CAR (third generation anti-CD19 chimeric antigen receptor, from the lenti-EF1-CD19-3rd-CAR-eGFt plasmid, Creative Biolabs) on the surface of exosomes from CAR-T cells”?
Co-culture killing assay; decrease of CD19+ cells incubated with EXO-CD19-CAR: 60%; Cytotoxicity assay of EXO-CAR-T against tumor cells (Namalwa); CD19+ cells eliminated at 150 µg/mL EXO-CAR-T: 70%
